Source: US20200085789A1, “USE OF A PROTEASOME INHIBITOR FOR THE TREATMENT OF CENTRAL NERVOUS SYSTEM (CNS) CANCERS” (Celgene International II Sàrl, priority 2017, published 2020)

Experiment: Adverse events and dose-limiting toxicity (NCI-CTCAE v 4.03), MRZ ± BEV in recurrent grade IV malignant glioma patients
Format: in vivo, human
Source text: An adverse event (AE) is any noxious, unintended, or untoward medical occurrence that may appear or worsen in a subject during the course of a study. […] Any worsening (i.e., any clinically significant adverse change in the frequency or intensity of a pre-existing condition) should be considered an AE.
The severity/intensity of AEs will be graded based upon the subject's symptoms according to the current active minor version of the Common Terminology Criteria for Adverse Events ( ).

[1] = MRZ 0.7 mg/m^2 + BEV, Cohort 2 (N = 3)
[2] = MRZ 0.8 mg/m^2 + BEV, Cohorts 3 & 4 (N = 27)
[3] = treated with MRZ 0.8 mg/m^2 + BEV (N = 27)

## bevacizumab [reference compound]
[1]
  Grade ≥3 Ataxia related to the labelled drug, patients: 0
  Grade ≥3 Confusional State related to the labelled drug, patients: 0
  Grade ≥3 Delusion related to the labelled drug, patients: 0
  Grade ≥3 Dyspnea related to the labelled drug, patients: 0
  Grade ≥3 Embolism related to the labelled drug, patients: 0
  Grade ≥3 Fall related to the labelled drug, patients: 0
  Grade ≥3 Fatigue related to the labelled drug, patients: 0
  Grade ≥3 Hallucination related to the labelled drug, patients: 0
  Grade ≥3 Headache related to the labelled drug, patients: 0
  Grade ≥3 Hypertension related to the labelled drug, patients: 1
  Grade ≥3 Hyponatremia related to the labelled drug, patients: 0
  Grade ≥3 Insomnia related to the labelled drug, patients: 0
  Grade ≥3 Intracranial Hemorrhage related to the labelled drug, patients: 0
  Grade ≥3 Optic Nerve Disorder related to the labelled drug, patients: 0
  Grade ≥3 Proteinuria related to the labelled drug, patients: 1
[2]
  Grade ≥3 Ataxia related to the labelled drug, patients: 0
  Grade ≥3 Confusional State related to the labelled drug, patients: 0
  Grade ≥3 Delusion related to the labelled drug, patients: 0
  Grade ≥3 Dyspnea related to the labelled drug, patients: 1
  Grade ≥3 Embolism related to the labelled drug, patients: 1
  Grade ≥3 Fall related to the labelled drug, patients: 0
  Grade ≥3 Fatigue related to the labelled drug, patients: 1
  Grade ≥3 Hallucination related to the labelled drug, patients: 0
  Grade ≥3 Headache related to the labelled drug, patients: 1
  Grade ≥3 Hypertension related to the labelled drug, patients: 5
  Grade ≥3 Hyponatremia related to the labelled drug, patients: 0
  Grade ≥3 Insomnia related to the labelled drug, patients: 0
  Grade ≥3 Intracranial Hemorrhage related to the labelled drug, patients: 1
  Grade ≥3 Optic Nerve Disorder related to the labelled drug, patients: 1
  Grade ≥3 Proteinuria related to the labelled drug, patients: 0
Pts on MRZ+BEV
  Anaemia: # Patients, AE related to the labelled drug(s): 0
  Anxiety: # Patients, AE related to the labelled drug(s): 0
  Aphasia: # Patients, AE related to the labelled drug(s): 0
  Appendicitis Perforated: # Patients, AE related to the labelled drug(s): 0
  Asthenia: # Patients, AE related to the labelled drug(s): 0
  Ataxia: # Patients, AE related to the labelled drug(s): 0
  Confusional State: # Patients, AE related to the labelled drug(s): 0
  Constipation: # Patients, AE related to the labelled drug(s): 0
  Convulsion: # Patients, AE related to the labelled drug(s): 0
  Delusion: # Patients, AE related to the labelled drug(s): 0
  Depressed Level of Consciousness: # Patients, AE related to the labelled drug(s): 0
  Diarrhoea: # Patients, AE related to the labelled drug(s): 0
  Dizziness: # Patients, AE related to the labelled drug(s): 0
  Dysarthria: # Patients, AE related to the labelled drug(s): 0
  Dysphagia: # Patients, AE related to the labelled drug(s): 0
  Dysphonia: # Patients, AE related to the labelled drug(s): 10
  Dyspnoea: # Patients, AE related to the labelled drug(s): 0
  Ear Infection: # Patients, AE related to the labelled drug(s): 0
  Epistaxis: # Patients, AE related to the labelled drug(s): 7
  Falls: # Patients, AE related to the labelled drug(s): 0
  Fatigue: # Patients, AE related to the labelled drug(s): 0
  Fracture of Femur: # Patients, AE related to the labelled drug(s): 0
  Hallucination: # Patients, AE related to the labelled drug(s): 0
  Headache: # Patients, AE related to the labelled drug(s): 1
  Hemiparesis: # Patients, AE related to the labelled drug(s): 0
  Hyperglycemia: # Patients, AE related to the labelled drug(s): 0
  Hypertension: # Patients, AE related to the labelled drug(s): 13
  Hypokalemia: # Patients, AE related to the labelled drug(s): 0
  Hyponatremia: # Patients, AE related to the labelled drug(s): 0
  Hypotension: # Patients, AE related to the labelled drug(s): 0
  Infusion Site Pain: # Patients, AE related to the labelled drug(s): 0
  Insomnia: # Patients, AE related to the labelled drug(s): 1
  Lymphocyte Count Decreased: # Patients, AE related to the labelled drug(s): 0
  Muscular Weakness: # Patients, AE related to the labelled drug(s): 0
  Nausea: # Patients, AE related to the labelled drug(s): 0
  Optic Nerve Disorder: # Patients, AE related to the labelled drug(s): 1
  Pyramidal Tract Syndrome: # Patients, AE related to the labelled drug(s): 0
  Tumor Metastasis: # Patients, AE related to the labelled drug(s): 0
  Vision Blurred: # Patients, AE related to the labelled drug(s): 0
  Vomiting: # Patients, AE related to the labelled drug(s): 0
[3]
  Anaemia related to the labelled drug(s): (0.0%)
  Anaemia related to the labelled drug(s), patients: 0
  Ataxia related to the labelled drug(s): (0.0%)
  Ataxia related to the labelled drug(s), patients: 0
  Confusional state related to the labelled drug(s): (3.7%)
  Confusional state related to the labelled drug(s), patients: 1
  Constipation related to the labelled drug(s): (3.7%)
  Constipation related to the labelled drug(s), patients: 1
  Diarrhoea related to the labelled drug(s): (3.7%)
  Diarrhoea related to the labelled drug(s), patients: 1
  Dizziness related to the labelled drug(s): (3.7%)
